Test results taken from US20160052998A1 (GlaxoSmithKline, published 2016).
Values joined by “and” are separate entries in the source; they are usually repeats but may differ in a detail not shown here. Identical values can stand only once.

B1: Rat Serum Albumin (other, UniProt P02770 25-608, looked up)
chain: EAHKSEIAHRFKDLGEQHFKGLVLIAFSQYLQKCPYEEHIKLVQEVTDFAKTCVADENAENCDKSIHTLFGDKLCAIPKLRDNYGELADCCAKQEPERNECFLQHKDDNPNLPPFQRPEAEAMCTSFQENPTSFLGHYLHEVARRHPYFYAPELLYYAEKYNEVLTQCCTESDKAACLTPKLDAVKEKALVAAVRQRMKCSSMQRFGERAFKAWAVARMSQRFPNAEFAEITKLATDVTKINKECCHGDLLECADDRAELAKYMCENQATISSKLQACCDKPVLQKSQCLAEIEHDNIPADLPSIAADFVEDKEVCKNYAEAKDVFLGTFLYEYSRRHPDYSVSLLLRLAKKYEATLEKCCAEGDPPACYGTVLAEFQPLVEEPKNLVKTNCELYEKLGEYGFQNAVLVRYTQKAPQVSTPTLVEAARNLGRVGTKCCTLPEAQRLPCVEDYLSAILNRLCVLHEKTPVSEKVTKCCSGSLVERRPCFSALTVDETYVPKEFKAETFTFHSDICTLPDKEKQIKKQTALAELVKHKPKATEDQLKTVMGDFAQFVDKCCKAADKDNCFATEGPNLVARSKEALA
notes: mature; 'mature' inferred from purified serum protein; also called RSA; rat SA

How the values were obtained:
[1] = target: T1, DOM7h-11-15/Exendin-4 fusion DMS number 7143; assay: SPR (BIAcore); KD as listed in PK table
T1 construct: Exendin-4 - (G4S)3 - AlbudAb, made in HEK293E; also called DMS7143

Human Serum Albumin [2] = target: T2, Human Serum Albumin (human, UniProt P02768 25-609); assay: SPR (BIAcore), albumin amine-coupled to CM5 chip
T2 construct: also called HSA; human SA

Rat Serum Albumin [3] = target: B1; assay: SPR (BIAcore), albumin amine-coupled to CM5 chip
[4] = target: T3, Cynomolgus monkey Serum Albumin (Cynomolgus monkey, UniProt A2V9Z4 25-608); assay: SPR (BIAcore), albumin amine-coupled to CM5 chip
T3 construct: mature; 'mature' inferred from purification out of serum; also called CSA; cyno serum albumin

mouse serum albumin [5] = target: T4, mouse serum albumin (mouse, UniProt P07724 25-608); assay: SPR (BIAcore), albumin amine-coupled to CM5 chip
T4 construct: mature; 'mature' inferred from purified serum protein; also called MSA; mouse SA

Human Serum Albumin [6] = target: T2, Human Serum Albumin; assay: SPR (BIAcore), albumin amine-coupled to CM5 chip; no KD given
Rat Serum Albumin [7] = target: B1; assay: as above
[8] = target: T3, Cynomolgus monkey Serum Albumin; assay: as above
mouse serum albumin [9] = target: T4, mouse serum albumin; assay: as above
mouse serum albumin [10] = target: T4, mouse serum albumin; assay: SPR (BIAcore); multiple independent measurements
mouse serum albumin [11] = target: T4, mouse serum albumin; assay: SPR (BIAcore); multiple independent measurements (first of two values of 12)
mouse serum albumin [12] = target: T4, mouse serum albumin; assay: SPR (BIAcore); multiple independent measurements (second of two values of 12)

## B1
[1]
  Kd: 273 nM

B2: DOM7r-92-4 (other)
VH: EVQLLESGGGLVQPGGSLRLSCAASGFTFDTSSMLWVRQAPGKGLEWVSVIHQSGTPTYYADSVKGRFTISRDNSKNTLYLQMNSLRAEDTAVYYCAKFPSTHGKFDYWGQGTLVTVSS
notes: Anti-serum albumin VH dAb (VH AlbudAb); also called DOM7h-92-4
Human Serum Albumin [2]
  Kd: 130 nM
Rat Serum Albumin [3]
  Kd: 260 nM
[4]
  Kd: 98 nM
Mouse serum albumin [5]
  Kd: 110 nM

B3: DOM7r31 (other)
VH: EVQLLESGGGLVQPGGSLRLSCTASGFTFRHYRMGWVRQAPGKGLEWVSWIRPDGTFTYYADSVKGRFTISRDNSKNTLYLQMNSLRAEDTAVYYCAKSYMGDRFDYWGQGTLVTVSS
notes: Anti-serum albumin VH dAb (VH AlbudAb)
Human Serum Albumin [6]
  binding result: binds
Rat Serum Albumin [7]
  binding result: binds
[8]
  binding result: binds
Mouse serum albumin [9]
  binding result: binds

B4: DOM7r-31-14 (other)
VH: EVQLLESGGGLVQPGGSLRLSCTASGFTFRHYRMGWVRQAPGKGLEWVSWIRPDGTFTYYADSVKGRFTISRDNSKNTLYLQMNSLRAEDTAVYYCAKSYMADRFDYWGQGTLVTVSS
notes: as for B3
Mouse serum albumin [10]
  Kd: 6 nM and 14.2 nM
Mouse serum albumin [11]
  Kd: 12 nM
Mouse serum albumin [12]
  Kd: 12 nM
